Experiment: soluble on expression in E. coli; label from the status in PepcDB or PDB records

Row | Sequence | soluble on expression in E. coli
1 | KVILYARVSSSTQKDELVNQVKYLEEQVKEYDLVITDIGSGLNMKRKGFLKLLRMILNNEVSRVVVAYPDRLVRVGFEILEEVCKAHNCEIVVLNQEDKEEELVEDLMSALVSFSGKLYGMRSHEYEKVKKCAEELKNWKI | soluble
2 | MKGPNLTEISKKITDSNAVLLAVKEVEALLSSIDEIAAKAIGKKIHQNNGLDTENNHNGSLLAGAYAISTLIKQKLDGLKNEGLKEKIDAAKKCSETFTNKLKEKHTDLGKEGVTDADAKEAILKTNGTKTKGAEELGKLFESVEVLSKAAKEMLANSVKELTSPVVAESPKKP | soluble
3 | MAHHHHHHMRHLYGPAPGCVLLSFDFNQMELRVLAHLSGDELLIKHLSSEYDVLSAMTRHITGLSDDEQVPPHLRETVKVVVYGLFYGMGLATMKERVKILMDSAHSVPSSQRKFTADTLLRAFHQRYPAAGKFLTRARIRAFHEARCVTLTGINDLSSEKDGNRRRQHSIARILQGSSSTLFQSAMVKVHERRHDIVPNLPAAPFALVLCIHDELIYSVVEGYVDVVARKIKGIMVEQAQVFSLRVPLRVSVKVGKTFGSLEKLDVP | soluble
4 | MGSDKIHHHHHHMSNKQHSTTITLPRGTLDLTYQTNAASGNNDLKESSRYQLEDLLDFAQRINPKRAFLFVSKVLGRHIPVAPSTMRDAFTDLANLVPDDLPEPILVIGMAETAVGLSAGVHQALQTRYPQALLLNSTRHAQHDNDNTNNLLTTFSEDHSHASQHLIYQSADKVTQAQLLASKTLIMVDDEASTGNTCVNVVTALRNAGLMQLQQVHLTTLVDWSLNQNQTDAKADDTIASRLPNIDFYRHHLLSGAWKWTDAPNPEPIIMPSVDTTEAGSQALAHTGHWGRFPTLDSTDGFANYLASFQTTFAIFDGQTAFDNAQLPQKILVLGSNEFVWLPFLLAEWLEQNADTVIDNQVIKFSALTRSPIALGGGISTMLSFHDNYGLGMTNFAYNVDPSNWDLIVLCVETSADGVDAMWQDLDNVLIVSPK | not soluble
5 | MSKLFPGEVFANTADFDTGIRQLLPRYDEMLEVICRCLPLTSRRILDLGCGTGELSLKILQRCPDAQVIALDYSPRMLKFAQNKIVASGYKERWTGLQADFGDWAINPETLNIGNEFDACVSSLAIHHLYDEMKLQLFQRIAASLTPNGCFWNADPILPESPTLAEIYQAAREEWVSEQGSNFTEVRAKVGDSSPQGYSNPDQLATLDTHLQMLTKSGFTTVAVPWKYYGLAVFGGWVKLEHHHHHH | soluble
6 | MPGHELEDVINQRLNLYDVLELPTPLDVHTIYDDLPQIKRKYRTLALKYHPDKHPDNPSIIHKFHLLSTATNILTNADVRPHYDRWLIEFLRKTNDIERNKLIQKLEESESSTIPTTTPHPDLLQIQRHGELLRKLKHFNLPYGDWKHLNTQDQENASQHPYYDCSTLRIVLDNFLQSNNKSNCLSHLRNQVFITLSANEIYDIYFSERNNYSKDDSIIIYTVFDTPITAQHVFRNWSSGNLIPTVKDISPLIPLHYYSDFNLETELNDDIARLVSNEPILLD | not soluble
7 | MLIRQAGPADNAQLLDFQQRHAMRGSMPLRFDRSPDYFALHHCHAADHRTWIAQSPEGELRGSASLVVRDGYLQGSAEPIAYLGDLRLMPDRRLSRSWMAEVQTRLADLSLQTGAQHAYCCIIRDNPLAIQSLLGRRRANPLKLAHWRGYSNVSVYGQRGLSSAPRTHAGVRVVRAEPRHLDALRAFLDSESSRQSFGCVFSETEFERRISHWPDFAIGSFLLAVDERENLLGCVAPWDAGKIKRIVVEQMPVAQQLLRMGYNAVAPLAGRPGIASPGNPLRDIYLTHLQVRQRDPEVFAALLDVAWAQVRKDYSLMQLCLYDQDPLWLAMRRYRSVSLPMDLYTAPCGSNTPVFTETCAAGVPGFEIYLV | not soluble
8 | FIKLPEFKLNYHNKSYRQYGRGFALQNTNFRPGSSGTLMLNNQKQIAGIYFGVLDFGEDVSLMSNIGVGQILRVPQKNNTRNR | not soluble
9 | LTVHYDLQLYKINYKTQSPDGNLTIASGLVAMPIHPVGQVGIISYQHGTRFERNDVPSRNNEKNYIYLAAYGNSAGYMTVMPDYLGLGDNELTLHPYVQAETLASSSIDMLFAAKELANRLHYPISDKLYLAGYSEGGFSTIVMFEMLAKEYPDLPVSAVAPGSAPYGWEETMHFVMLEPGPRATAYLAYFFYSLQTYKSYWSGFDEIFAPPYNTLIPELMDGYHAVDEILQALPQDPLLIFQPKFSNGIISKTDRNTEILKINFNHYDFKPTAPLLLVGTKGDRDVPYAGAEMAYHSFRKYSDFVWIKSVSDALDHVQAHPFVLKEQVDFFKQFERQE | not soluble
10 | MESRKLISATDIQYSGSLLNSLNEQRGHGLFCDVTVIVEDRKFRAHKNILSASSTYFHQLFSVAGQVVELSFIRAEIFAEILNYIYSSKIVRVRSDLLDELIKSGQLLGVKFIAAL | soluble
11 | SLGFIMKLTKTALCTALFATFTFSANAQTYPDLPVGIKGGTGALIGDTVYVGLGSGGDKFYTLDLKDPSAQWKEIATFPGGERNQPVAAAVDGKLYVFGGLQKNEKGELQLVNDAYRYNPSDNTWMKLPTRSPRGLVGSSGASHGDKVYILGGSNLSIFNGFFQDTVAAGEDKAKKDEIAAAYFDQRPEDYFFTTELLSYEPSTNKWRNEGRIPFSGRAGAAFTIQGNELVVVNGEIKPGLRTAETHQGKFTAKGVQWKNLPDLPAPKGKSQDGLAGALSGYSNGHYLVTGGANFPGSIKQFKEGKLHAHKGLSKAWHNEVYTLNNGKWRIVGELPMNIGYGFSVSYNNKVLLIGGETDGGKALTSVKAISYDGKKLTIE | not soluble
12 | MTDYDDYEDRSGVVEEELLDFDRAMLDFQAMFPSLSNSHIEYVLRKYDGDVSATINELLYDNTPTTTTSESIPHGGDLTKLRQRRHEINEKLRENQKFLDTVTDVEIARAYEDQQLALLLEHREVNTLISEEKKKKSCSDSSSIQESRRHVKIPGKNSKNSKISVNKAKKLEPRRRSDEDRVPDGPYIGEGEVKSENFAAKIKETLRKASGSRISRLFSAP | not soluble
13 | SPKKAKPTGSGKEEGPAPCKQMKLEAAGGPSALNFDSPSSLFESLISPIKTETFFKEFWEQKPLLIQRDDPALATYYGSLFKLTDLKSLCSRGMYYGRDVNVCRCVNGKKKVLNKDGKAHFLQLRKDFDQKRATIQFHQPQRFKDELWRIQEKLECYFGSLVGSNVYITPAGSQGLPPHYDDVEVFILQLEGEKHWRLYHPTVPLAREYSVEAEERIGRPVHEFMLKPGDLLYFPRGTIHQADTPAGLAHSTHVTISTYQNNSWGDFLLDTISGLVFDTAKEDVELRTGIPRQLLLQVESTTVATRRLSGFLRTLADRLEGTKELLSSDMKKDFIMHRLPPYSAGDGAELSTPGGKLPRLDSVVRLQFKDHIVLTVLPDQDQSDETQEKMVYIYHSLKNSRETHMMGNEEETEFHGLRFPLSHLDALKQIWNSPAISVKDLKLTTDEEKESLVLSLWTECLIQVV | soluble
14 | MSPDEDLRLLYLRLIPQLAENRPEFQQAIADSPLFTAYMKLLKRQAELSPRILSALLSAISSIVRSHLPAYLKFQAKNGLTATEKLIQSTKDHKNAVKAGRMIVSFLYTLTDLQGIDEITEEIKNSILKIYTLLDGRSRFVDRADDSEETKEFYEETMKMIKFEIMQMHPDIITPQTRKLLEEHFKESNLRAGLMPIGGWPVIPKNEWPQPPQPPCHKANKNAEPKKEPEPAKKVAPKQETKVDQEAAELARKIQIEEDKTRKRHEIVARFSILDIYTKEELAEKLKLDAEMEMAEAQKVLKEIR | not soluble
15 | MSAAVQKRASTNTVAATTYFKPAPSEIAWGKMRFLITDRPNNSSIQSYIEELEKHGARAVVRVCEPTYDTLALKEAGIDVLDWQFSDGSPPPPEVIKSWFQLCMTSFKEHPDKSIAVHCVAGLGRAPVLVAIALIEAGMKYEDAVEMIRTQRRGALNQKQLKFLETYKANGELRRLRGNVDGKQKSCCIQ | not soluble
16 | MGSDKIHHHHHHMKIAQVAPLWERVPPPSYGGIELVVSHLTNELVRRGHEVTLFASGDSQTLAHLETVCPRALRLDKNVQDYAAYETLELSQVYQNATEFDIIHSHLGISALPLANLVKTPTVHTLHGHFTKDNQNVFSHHHQQPYVSISNAQRQIHLNYIKTVYNGIEPKDYPFISQPKEPPYLAFLGRFSPEKGPHQAIAIAKQSGWRLKMAGKVDIVDAKFFEQEILPHIDGQQIEYLGEINHTEKAELLGNAAATLFPINWQEPFGLVMIESMATGTPVIGMNLGSVPEVIDQGKTGFICRTYEEMIQMIAVTLELDRRDCRESVVNKFSVSHMVDGYEAVYQQIIKDRVNLNGYIHTAKIRF | not soluble
17 | MISVVGAGGKTSLLFWLAELLQASGRRVLITTTTHMFMPTSHWPVVFCRDPAMLPHASLTSPISFCFHSWKANQGKVQGFTPEAIDALVQRPECDVILIEADGSRGMPLKAPDEHEPCIPKSSCCVIAVMGGHTLGAKVSTENVHRWSQFADITGLTPDATLQLSDLVALVRHPQGAFKNVPQGCRRVWFINRFSQCENAIAQSELLQPLQQHDVEAIWLGDIQEHPAIARRFVNLEHHHHHH | not soluble
18 | MKAIILGIQNILEVLLEDIGILKMESIFLHTNITNIPHSVLYVSLSYYIINPCTSASSNLDDSFS | soluble
19 | MNKEEQVMMSLRELFNKMAWLNKLKMEDSLKGYKPSEVHYIECIGKNVDSNVTKLAKSLYMTRGAISKMTKKLIEKNIVESYQKADNKKEIYFRLTEKGHEIYKLHENLHKEFQERDKVVFEQVTDEQFESMLSFIEKYSKHLDSEIKKLGIDTKLE | not soluble
20 | AHHHHHHGSAGIEVQILEKKEDSIKFVLKGVHVSFANALRRTILGEVPTFAVDEVEFYENDSALFDEIIAHRLAMIPLTTPVDRFELDALELDDYTVTLSLEAEGPGIVYSGDLKSDDPDVKPVNPNIPIVKLAEGQRLVFNAYAKLGRGKDHAKWQPGFVYYKYYTIVHISKSIPEWKELKKLAKKRGLPVEETEEEVLVTTIKPFYIPKDFEEYEGKEIWEEIVPNTYIFTVETNGELPVEEIVSIALKILMRKADRFISELQKLTS | soluble
21 | MAHAGRTGYDNREIVMKYIHYKLSQRGYEWDAGDDVEENRTEAPEGTESEVVHLTLRQAGDDFSRRYRRDFAEMSSQLHLTPFTARGRFATVVEELFRDGVNWGRIVAFFEFGGVMCVESVNREMSPLVDNIALWMTEYLNRHLHTWIQDNGGWDAFVELYGPSMR | soluble
22 | DTLANAVYLRLMTPLGGWWADPTLGSRLHELSRSKDSNRIDLLACQYAEQALQPLLQDGRASRVQVSSQRQGPGRLLLNIEVAETGGHIRHFQHQVRI | not soluble
23 | MGSDKIHHHHHHMKVKPFSLSIPFNTEPPSDWKDAWDVQLYVKVEDEKDYGWGEALVAGSGIINSYLSIINDIAIPLLSRVELSEPIDVRTILEKILFSAGNCGVVSGAISAVEMALWSLKARKSNVELYKLIGDKIRDSVKVYASFPRFGKIDDVLIATRKSLERGFDLVKLHQSPSTVLAAVKAIRENYKEVKIAIDLNSPFDNLDVAKEFVDKVHKYEIEWIEEPLWPPNDYDLLSKLTEFSPIPIAAGENEYSLYGFKKLIESGITYLQPDIAKVGGVTKFLEILDLASKYKVRVLPHDRPDASPISLIYTLNIGLVKSQIEMVEYTIADFPNDLFYSLPKFKDGYISPPENLEVVERNIEKYSYKNRLRILHFSDLENKLMRKIT | not soluble
24 | GMVEPMTPRFKYTKASQENIQQLGNILEQCFVMSFGDSEIYVKGIGLENFRVIYREQKVAGGLAILPMGQWWGGQRVPMAGIAAVGIAPEYRGDGAAIALIQHTLQEISEQDIPISVLYPATQRLYRKAGYEQAGSSCVWEIPTDSIQIQHASLPLEPVVLKNNPIFHELYQQQAQLTHGYLDRHPAIWQGLNRTLDTETLYSYLIGDKDKPQGYIIFTQERTRDGSILRIRDWVTLSNPAVQSFWTFIANHRSQIDKVTWKSSVIDALTLLLPEQSATIRSQDRWMLRIVNVCKALEARGYPLGVEAELHLEVQDDLLATNQGKFILSVANGKSEVTKGGKGELQLDIKGLASLYTSLFTPRQLQLTGKLQATETALLKATQIFAGESPWMIDFF | soluble

— the DeepSol protein solubility set
